Assay results published in PMC6638984, “Increased association between Epstein-Barr virus EBNA2 from type 2 strains and the transcriptional repressor BS69 restricts EBNA2 activity” (PLoS Pathogens, 2019).
Where two headings read alike, the source gives them in different places.

Biological target: T1, BS69CC-MYND (BS69 amino acid 480–602, CC-MYND domain) (Homo sapiens, UniProt Q15326)
T1 construct: The BS69 CC-MYND domain (amino acids 480–602) was amplified from pCI-BS69; GST (N, cleaved yes); 6xHis (N, cleaved yes); made in house; host or cells: E. coli Rosetta 2 (DE3) pLysS
T1 sequence (Q15326 480-602): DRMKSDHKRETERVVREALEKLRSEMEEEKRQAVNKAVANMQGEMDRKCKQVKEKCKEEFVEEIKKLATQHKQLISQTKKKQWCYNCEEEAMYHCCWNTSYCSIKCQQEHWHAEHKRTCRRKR
Experiment: Isothermal titration calorimetry (ITC) of EBNA2 peptides and polypeptides binding to BS69CC-MYND
Details: mean ± SD of 3 independent experiments; for Kd: pH 7.5, 29 injections of 1.3 μl 0.3 mM EBNA2 polypeptide into 0.1 mM BS69CC-MYND; for -TΔS, event 1, two-site model / -TΔS, event 2, two-site model / n value, event 1, two-site model / n value, event 2, two-site model / ΔG, event 1, two-site model / ΔG, event 2, two-site model / ΔH, event 1, two-site model / ΔH, event 2, two-site model: 29 injections
Source text: We hypothesised that the impaired gene activation and growth maintenance properties of type 2 EBNA2 may be the result of increased binding to BS69 as a result of the aspartate to serine amino acid difference adjacent to BS69 binding motif 2. […] We used isothermal titration calorimetry (ITC) to determine the affinity of peptide binding to the C-terminal region of BS69 (amino acid 480–602) comprising the CC-MYND domain that we expressed and purified from E.coli (Fig 1B and 1C). […] The difference in binding between type 1 and type 2 EBNA2 motif 2 peptides could be influenced by both the aspartate to serine change and differences in two other amino acids present in the sequence (Fig 1B and 1C).
The BS69 CC-MYND domain (amino acids 480–602) was amplified from pCI-BS69 containing the full length human BS69 sequence (gift from Dr Stéphane Ansieau) and cloned using SLIC into the SmaI and HindIII sites of pET49b+ to generate a construct expressing an N-terminal GST-6x Histidine tag BS69CC-MYND fusion protein (S2 Table).
Four commercially synthesized peptides (Peptide Synthetics) were used for ITC. These included BS69 binding motif 2 of type 1 EBNA2 (435–445) or type 2 EBNA2 (402–412) and putative BS69 binding motif 3 of type 1 EBNA2 (445–455) or type 2 EBNA2 (412–422).
Frozen protein was quickly thawed using running water and dialysed overnight at 4°C using Slide-A-Lyzer MINI Dialysis Units (Thermo Scientific) against ITC buffer (20mM Tris-HCl, 100mM NaCl and 1mM TCEP, pH 7.5). The next day, protein samples were centrifuged at 13000 rpm for 10 mins at 4 °C and the concentration was determined by NanoDrop spectroscopy (NanoDrop Technologies) with their respective molecular weights and extinction coefficients. EBNA2 peptides (1mM) and polypeptides (type 1, 0.3 mM and type 2, 0.6 mM) were titrated against BS69CC-MYND (0.1mM) at 25°C using a MicroCalTM iTC200 instrument (Malvern). For peptides, 13 x 3.0 μl injections were used for titration. For EBNA2 polypeptides 19 x 2.0 μl or 29 x 1.3 μl injections were used for titration. ITC data were corrected for non-specific heat and analysed using MicroCal Origin 7.0. The experiments were performed in triplicate alongside a control experiment with no BS69CC-MYND (buffer only in the cell). All polypeptides were used within 24 hrs of dialysis into ITC buffer.

[1] = 25°C, pH 7.5, peptides 13 injections, polypeptides 19 injections
[2] = 25°C, read-out: KD1 (binding event 1), two-site (two event) binding model
[3] = 25°C, read-out: KD2 (binding event 2), two-site (two event) binding model

B1: T2 EBNA2_348-412: type 2 EBNA2 polypeptide, amino acids 348–412, expressed and purified from E.coli (protein)
chain: SMPQLSPVVSLHQGQGPENSPTPGPSTAGPVCRVTPSATPDISPIHEPESSDSEEPPFLFPSDWY
modifications: left off: His6, N-terminal, cleaved
notes: type 2 EBNA2 polypeptide, amino acids 348–412, expressed and purified from E.coli
[1]
  -TΔS, one-site model: 14.4 kcal/mol
  ΔG, one-site model: -8.08 ± 0.06 kcal/mol
25°C, pH 7.5, peptides 13 injections, polypeptides 19 injections, listed as T2 EBNA2348-412
  -TΔS, one-site model: 14.4 ± 2.48 kcal/mol

B2: EBNA2_348-422 SD + m3 T1: type 2 EBNA2 polypeptide 348–422 containing both the SD and motif 3 (PSIDP) mutations (protein)
chain: SMPQLSPVVSLHQGQGPENSPTPGPSTAGPVCRVTPSATPDISPIHEPESSDSEEPPFLFPDDWYPPSIDPAELD
modifications: left off: His6, N-terminal, cleaved
notes: type 2 EBNA2 polypeptide 348–422 containing both the SD and motif 3 (PSIDP) mutations
[2]
  Kd: 8 nM
[3]
  Kd: 136 nM
  -TΔS, event 1, two-site model: 21.0 ± 0.95 kcal/mol
  -TΔS, event 2, two-site model: -4.62 ± 2.01 kcal/mol
  n value, event 1, two-site model: 0.20 ± 0.01
  n value, event 2, two-site model: 0.20 ± 0.08
  ΔG, event 1, two-site model: -11.1 ± 0.17 kcal/mol
  ΔG, event 2, two-site model: -9.44 ± 0.35 kcal/mol
  ΔH, event 1, two-site model: -32.1 ± 1.12 kcal/mol
  ΔH, event 2, two-site model: -4.82 ± 1.69 kcal/mol

B3: EBNA2_348-422 SD + m3 mt: type 2 EBNA2 polypeptide 348–422 containing both the SD and motif 3 (ATAEA) mutations (protein)
chain: SMPQLSPVVSLHQGQGPENSPTPGPSTAGPVCRVTPSATPDISPIHEPESSDSEEPPFLFPDDWYPATAEAAELD
modifications: left off: His6, N-terminal, cleaved
notes: type 2 EBNA2 polypeptide 348–422 containing both the SD and motif 3 (ATAEA) mutations
[2]
  Kd: 5 ± 1 nM
[3]
  Kd: 94 ± 28 nM
  -TΔS, event 1, two-site model: 20.4 ± 2.24 kcal/mol
  -TΔS, event 2, two-site model: -1.95 ± 2.10 kcal/mol
  n value, event 1, two-site model: 0.20 ± 0.00
  n value, event 2, two-site model: 0.19 ± 0.01
  ΔG, event 1, two-site model: -9.60 ± 0.21 kcal/mol
  ΔG, event 2, two-site model: -11.3 ± 0.12 kcal/mol
  ΔH, event 1, two-site model: -31.7 ± 2.14 kcal/mol
  ΔH, event 2, two-site model: -7.65 ± 1.89 kcal/mol

B4: T2 EBNA2_348-422 motif 3 mt: T2 EBNA2_348-422 with motif 3 mutated from PTLEP to ATAEA (protein)
chain: SMPQLSPVVSLHQGQGPENSPTPGPSTAGPVCRVTPSATPDISPIHEPESSDSEEPPFLFPSDWYPATAEAAELD
modifications: left off: His6, N-terminal, cleaved
notes: T2 EBNA2_348-422 with motif 3 mutated from PTLEP to ATAEA
[1]
  -TΔS, one-site model: 17.2 kcal/mol
  ΔG, one-site model: -8.50 ± 0.07 kcal/mol
25°C, pH 7.5, peptides 13 injections, polypeptides 19 injections, listed as T2 EBNA2 348-422 m3 mt
  -TΔS, one-site model: 17.2 ± 0.79 kcal/mol

B5: T2 EBNA2_348-422 SD: type 2 EBNA2 polypeptide 348–422 with an S409D mutation (protein)
chain: SMPQLSPVVSLHQGQGPENSPTPGPSTAGPVCRVTPSATPDISPIHEPESSDSEEPPFLFPDDWYPPTLEPAELD
modifications: left off: His6, N-terminal, cleaved
notes: type 2 EBNA2 polypeptide 348–422 with an S409D mutation
[2]
  Kd: 8 ± 3 nM
[3]
  Kd: 200 ± 26 nM
  -TΔS, event 1, two-site model: 11.6 ± 0.31 kcal/mol
  -TΔS, event 2, two-site model: 0.47 ± 1.33 kcal/mol
  n value, event 1, two-site model: 0.22 ± 0.01
  n value, event 2, two-site model: 0.20 ± 0.00
  ΔG, event 1, two-site model: -11.0 ± 0.21 kcal/mol
  ΔG, event 2, two-site model: -9.14 ± 0.08 kcal/mol
  ΔH, event 1, two-site model: -22.7 ± 0.29 kcal/mol
  ΔH, event 2, two-site model: -9.62 ± 1.32 kcal/mol

B6: T2 EBNA2_348-422 m3 T1: T2 EBNA2_348-422 with motif 3 PTLEP replaced with the type 1 sequence PSIDP (protein)
chain: SMPQLSPVVSLHQGQGPENSPTPGPSTAGPVCRVTPSATPDISPIHEPESSDSEEPPFLFPSDWYPPSIDPAELD
modifications: left off: His6, N-terminal, cleaved
[1]
  -TΔS, one-site model: 19.5 ± 1.27 kcal/mol
  ΔG, one-site model: -7.80 ± 0.04 kcal/mol
  ΔH, one-site model: -27.3 ± 1.23 kcal/mol

B7: T2 EBNA2_348-422: type 2 EBNA2 polypeptide containing motif 1, 2 and 3, amino acids 348–422 (protein)
chain: SMPQLSPVVSLHQGQGPENSPTPGPSTAGPVCRVTPSATPDISPIHEPESSDSEEPPFLFPSDWYPPTLEPAELD
modifications: left off: His6, N-terminal, cleaved
[2]
  Kd: 9 nM
[3]
  Kd: 91 nM
[1]
  -TΔS, one-site model: 45 kcal/mol
  ΔG, one-site model: -8.20 ± 0.18 kcal/mol
25°C, pH 7.5, peptides 13 injections, polypeptides 19 injections, listed as T2 EBNA2 348-422
  -TΔS, one-site model: 45.0 ± 1.84 kcal/mol
  -TΔS, event 1, two-site model: 23.1 ± 0.14 kcal/mol
  -TΔS, event 2, two-site model: -8.04 ± 0.25 kcal/mol
  n value, event 1, two-site model: 0.23 ± 0.01
  n value, event 2, two-site model: 0.21 ± 0.00
  ΔG, event 1, two-site model: -11.0 ± 0.28 kcal/mol
  ΔG, event 2, two-site model: -9.62 ± 0.16 kcal/mol
  ΔH, event 1, two-site model: -34.1 ± 0.14 kcal/mol
